According to patent publication US20210340272A1 (ANWITA BIOSCIENCES, published 2021):

Key:
[1] = molecular target: T1, cell surface mesothelin on human cancer cell lines NCI-H226, OVCAR3, NCI-N87 and AsPC-1 (human, UniProt Q13421 296-598); experiment: flow cytometry on AsPC-1 cells; Alexa Fluor 488 anti-human IgG secondary antibody
T1 construct: whole, on cells
Experimental: (§1) After washing, cells were incubated with Alexa Fluor 488 conjugated secondary antibody (anti-human IgG, Life Technologies) for 20 minutes at 4C. Cells were washed and then fluorescence intensity of the cells was quantified by flow cytometry.

[2] = molecular target: T1, cell surface mesothelin on human cancer …; experiment: flow cytometry on NCI-N87 cells; Alexa Fluor 488 anti-human IgG secondary antibody
Experimental: as §1

[3] = molecular target: T1, cell surface mesothelin on human cancer …; experiment: flow cytometry on NCI-H226 cells; Alexa Fluor 488 anti-human IgG secondary antibody
Experimental: as §1

T1 sequence (Q13421 other isoform, or with tags, fused parts or gaps limits assumed): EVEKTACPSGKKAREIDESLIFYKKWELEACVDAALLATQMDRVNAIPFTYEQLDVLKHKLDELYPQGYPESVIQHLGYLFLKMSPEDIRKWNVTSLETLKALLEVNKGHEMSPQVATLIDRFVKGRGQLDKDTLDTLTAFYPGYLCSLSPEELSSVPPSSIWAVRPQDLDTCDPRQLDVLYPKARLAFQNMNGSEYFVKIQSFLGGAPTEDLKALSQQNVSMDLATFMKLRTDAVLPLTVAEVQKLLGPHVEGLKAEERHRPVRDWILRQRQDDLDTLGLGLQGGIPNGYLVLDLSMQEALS

B1: R2G12 (original llama VHH, Anti-MSLN-9) as human IgG1 Fc fusion (Fc fusion)
chain: QVQLVESGGGLVQAGGSLRLSCAASGITFPVNAYGWYRQAPGKQRDLVAIISAGGTTNYADSVKGRFAISKDNVNNTVYLQMNSLTSEDTGVYYCYLQRRIGMLRDYWGQGTQVTVSS
notes: also called R2-G06(G12); not shown: human IgG1 Fc (hIgG1 Fc)
EC50 (read off the curve) [1]: ~7 ng/mL | EC50 (read off the curve) [2]: ~5 ng/mL | EC50 (read off the curve) [3]: ~10 ng/mL

B2: R3C7 (original llama VHH, Anti-MSLN-6) as human IgG1 Fc fusion (Fc fusion)
chain: QVQLVESGGGLVEAGDSLRLSCVVSGRTLESYVMAWFRQAPGKEREAVASINWSSGRLIYADFVKGRFTISRDYEKNTIYLSMNNLKPEDTAVYYCAAGRYWGQGTQVTVSS
notes: also called R3-E08(C7); not shown: human IgG1 Fc (hIgG1 Fc)
EC50 (read off the curve) [1]: ~6 ng/mL | EC50 (read off the curve) [2]: ~4 ng/mL | EC50 (read off the curve) [3]: ~10 ng/mL
